± gives the standard deviation.
Assay: protein stability index of a GFP-peptide fusion (GPS, HEK-293T) (PSI 1-6); higher = more stable
[1] = treatment: DMSO, c terminus: a fixed tail appended
[2] = treatment: MLN4924 1 uM, 8 h, c terminus: a fixed tail appended
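Also: 24-mer peptide tiles fused after GFP, lentivirally expressed, FACS-sorted into six equal bins by GFP/DsRed ratio, decoded by Illumina sequencing, PSI is the read-weighted mean bin number.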

Sequence | protein stability index [1] | protein stability index [2] | protein stability index (treatment: DMSO, c terminus: native) | protein stability index (treatment: MLN4924 1 uM, 8 h, c terminus: native)
RLKEMKLLRDQFVKALEDFEDLCD [FAM9B] | 2.27 ± 0.13 | 2.52 ± 0.38 | – | –
SNRWLMVKIFLILIVFFIIFVVFL [STX5] | 3.38 ± 0.24 | 3.45 ± 0.32 | – | –
TVTVISPLELMRTKLQAQHVSYRE [SLC25A39] | 2.65 ± 0.41 | 2.81 ± 0.22 | – | –
FSGSNEVDQMNRIVEVLGIPPAAM [DYRK1B] | 2.94 ± 0.14 | 3.23 ± 0.22 | – | –
SHTLEERVVHWYFKLLDKNSSGDI [SMOC2] | 2.44 ± 0.36 | 2.03 ± 0.21 | – | –
FSPTPPQQFQPAGTDQVCVLEWGA [FCHSD1] | 2.49 ± 0.27 | 2.86 ± 0.35 | – | –
PRIVEMKKGSNGYGFYLRAGSEQK [PDZK1] | 3.53 ± 0.36 | 3.65 ± 0.54 | – | –
MSKQRERQLRRRALHPERAMDNHS [RETREG3] | 4.31 ± 0.17 | 4.44 ± 0.088 | – | –
EHLDNLRLNLTNTKQNFFSQTPIL [INTS3] | 2.35 ± 0.28 | 2.48 ± 0.32 | – | –
YGRIVEVLLMKDRETNKSRGFAFV [RBMX] | 2.9 ± 0.44 | 2.48 ± 0.59 | – | –
PVTERQIEREHLIQLRRWQETRGE [TBC1D10A] | 4.25 ± 0.14 | 4.33 ± 0.18 | – | –
KKTCRRINYCALNKPGCEHECVNM [MATN2] | 2.8 ± 0.38 | 2.95 ± 0.74 | – | –
HVHDPHGQVIWGMSWAKLARQATN [FBXO39] | 2.58 ± 0.32 | 2.94 ± 0.21 | – | –
LLQRELMVPGTRHSAVLRDLRSGT [TNXB] | 2.43 ± 0.3 | 2.75 ± 0.28 | – | –
MSHHPSGLRAGFSSTSYRRTFGPP [PRPH] | 2.92 ± 0.23 | 2.94 ± 0.1 | – | –
MQSARGPTPSSPLPSVPVSVPASD [PLEKHN1] | 4.78 ± 0.28 | 4.79 ± 0.11 | – | –
AKGSLGTQIGFADLMGVLTKGVRE [FEM1A] | 2.49 ± 0.19 | 2.4 ± 0.3 | – | –
ETLPELKDDKDFTGTVHRIDNTTV [KCNA1] | 5.12 ± 0.24 | 5.17 ± 0.072 | – | –

Sequence | protein stability index [1] | protein stability index [2] | protein stability index (treatment: DMSO, c terminus: native) | protein stability index (treatment: MLN4924 1 uM, 8 h, c terminus: native)
NQEYKMLLDIKTRLEQEIATYRSL [KRT13] | 2.58 ± 0.21 | 2.78 ± 0.19 | – | –
PICSANHKESKMTIFEKENFIGRQ [CRYBA1] | 3.34 ± 0.27 | 3.46 ± 0.18 | – | –
EDGRPSLGSPYGQPPRFPVPHNGS [PDLIM4] | 4.8 ± 0.17 | 4.63 ± 0.26 | – | –
DAENQKNWLDPAKEIKKQVRSGAW [EPB41L3] | 3.55 ± 0.5 | – | – | –
RDRQQAPGLGQESKAPGSCDPGTD [TLE6] | 5.45 ± 0.12 | 5.46 ± 0.16 | – | –
VTLLVRGVCYSESQSSASQPRLSY [CLCN6] | 2.83 ± 0.41 | 2.29 ± 0.6 | – | –
LADKELVHMISWAKKIPGMRGNA [ESR2] | – | – | 2.95 ± 0.85 | 2.56 ± 0.7
GFEYDGKINAWDLYYYMTQTEELK [NLN] | 2.81 ± 0.035 | 2.49 ± 0.39 | – | –
SRHVTTRAALTYTSLEITILTSQP [M1AP] | 2.63 ± 0.51 | 2.6 ± 0.65 | – | –
PLRLFLIIANTMAFQNDVYEWARD [SCD] | 2.75 ± 0.61 | 2.87 ± 0.61 | – | –
PKGSKGKEKDSPFKPKLYKGDRGL [RBBP5] | 3.86 ± 0.89 | 4.34 ± 0.46 | – | –
AQDDDRLREERKKAKKNKDKYVGV [CLINT1] | 5.27 ± 0.17 | 5.48 ± 0.38 | – | –
LHESYCMDTSHQPLLPAPPKTPMD [LYSMD4] | 4.65 ± 0.27 | 4.59 ± 0.11 | – | –
PAAGESLSGTRESLAQGPDAATTD [TBC1D10A] | 5.36 ± 0.32 | 5.29 ± 0.13 | – | –
AGGFSIRNQKGEQVFRLAFRSGAL [MYORG] | 1.77 ± 0.2 | 2.28 ± 0.39 | – | –
YKIVKPLWTSFIQSVSYSKLLSVI [P2RY14] | 2.06 ± 0.16 | 2.36 ± 0.39 | – | –
EDSAESRPWRAGVLAEGDNASRSL [PSD2] | 5.21 ± 0.18 | 5.14 ± 0.084 | – | –
RLVDRDSVWGYDLGLRSLIPAVLT [MYORG] | 2.25 ± 0.54 | 2.28 ± 0.12 | – | –

Reference: the supplement of paper PMC10567573
